The values that follow are results of earlier work, collected in PMC10966181.

The pKa is the pH at which an ionisable group is half protonated.

For this series, the target named is Tyr159 (UniProt position 159, ISIHVYGANIG). The series can be described thus: kinetics. The following applies: Catalytically active Fe(II)-MDO turning over the substrate 3MPA.

On to “3-mercaptopropionate dioxygenase (MDO) H157N variant (Azotobacter vinelandii; H157N)”, for which the pKa was 9.9 ± 0.1. Turning to “3-mercaptopropionate dioxygenase (MDO, AvMDO) (Azotobacter vinelandii)”, the pKa was 9.2 ± 0.1.
